# Assay results: paper PMC12207370, “Macrocyclic Peptide Probes for Immunomodulatory Protein CD59: Potent Modulators of Bacterial Toxin Activity and Antibody‐Dependent Cytotoxicity” (Angewandte Chemie (International Ed. in English), 2025)
# Target: T1, biotinylated CD59 (Homo sapiens, UniProt P13987)
# T1 construct: Recombinant soluble human CD59 with an additional C-terminal cysteine residue
# T1 sequence (P13987 26-102 limits assumed): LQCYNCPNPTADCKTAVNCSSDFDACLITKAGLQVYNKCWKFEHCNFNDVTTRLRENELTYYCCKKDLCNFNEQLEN
# Assay: mRNA-display cyclic peptide screen against CD59-biotin, NGS abundance after 6th selection round
# Settings: for Percentage Seq I: counts normalised by total counts of sample Seq I; for Percentage Seq I / Percentage Seq II: percentage of the pool; for Percentage Seq I / Percentage Seq II / Percentage Average / Percentage of the pool, averaged across the two sequencing samples / Percentage of the pool, Seq I / Percentage of the pool, Seq II: sheet R6; for Percentage Seq II: counts normalised by total counts of sample Seq II; for Percentage Average: percentage of the pool averaged across the two sequencing samples; for Counts Seq I / Counts Seq II: raw NGS counts of peptide sequence; for Counts Seq I: sequencing sample Seq I; for Counts Seq I / Counts Seq II / Counts (raw counts for peptide sequence), Seq I / Counts (raw counts for peptide sequence), Seq II: sheet R6 (6th selection round); for Counts Seq II: sequencing sample Seq II; for Counts (raw counts for peptide sequence), Seq I: NGS sample Seq I; for Counts (raw counts for peptide sequence), Seq II: NGS sample Seq II; for Percentage of the pool, averaged across the two sequencing samples: average of Seq I and Seq II; for Percentage of the pool, Seq I: counts normalised by total counts of NGS sample Seq I; for Percentage of the pool, Seq II: counts normalised by total counts of NGS sample Seq II
# Method in brief: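 Peptide–mRNA fusions were made by in vitro translation with a customised PURE express kit. The kit lacked release factor 1 and methionine and was supplemented with […] initiator tRNA carrying N-chloroacetyl-d-tyrosine. Thioether macrocycles were formed, then enriched and amplified over iterative rounds on CD59-biotin immobilised on streptavidin beads. NGS read counts per sequence were recorded after the 6th selection round.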
sequence,measurement,value
SWTWGNRSSARG,Percentage Seq I,0.025%
same,Percentage Seq II,0.035%
same,Percentage Average,0.030%
same,Counts Seq I,110
same,Counts Seq II,15
SWTWGNRSSVLG,"Counts (raw counts for peptide sequence), Seq I",35
same,"Counts (raw counts for peptide sequence), Seq II",7
same,"Percentage of the pool, averaged across the two sequencing samples",0.012%
same,"Percentage of the pool, Seq I",0.008%
same,"Percentage of the pool, Seq II",0.016%
SWTWGNRSSVRG,Percentage Seq I,2.910%
same,Percentage Seq II,2.799%
same,Percentage Average,2.855%
same,Counts Seq I,12733
same,Counts Seq II,1206
SWTWGNRSSVSG,"Counts (raw counts for peptide sequence), Seq I",73
same,"Counts (raw counts for peptide sequence), Seq II",2
same,"Percentage of the pool, averaged across the two sequencing samples",0.011%
same,"Percentage of the pool, Seq I",0.017%
same,"Percentage of the pool, Seq II",0.00464%
SWTWGNRSTVRG,Percentage Seq I,0.011%
same,Percentage Seq II,0.026%
same,Percentage Average,0.018%
same,Counts Seq I,49
same,Counts Seq II,11
SWTWGNRTSVRG,"Counts (raw counts for peptide sequence), Seq I",36
same,"Counts (raw counts for peptide sequence), Seq II",7
same,"Percentage of the pool, averaged across the two sequencing samples",0.012%
same,"Percentage of the pool, Seq I",0.008%
same,"Percentage of the pool, Seq II",0.016%
SYGGRTFIYAWS,"Counts (raw counts for peptide sequence), Seq I",62
same,"Counts (raw counts for peptide sequence), Seq II",5
same,"Percentage of the pool, averaged across the two sequencing samples",0.013%
same,"Percentage of the pool, Seq I",0.014%
same,"Percentage of the pool, Seq II",0.012%
TAWGNRQIQYY,"Counts (raw counts for peptide sequence), Seq I",73
same,"Counts (raw counts for peptide sequence), Seq II",7
same,"Percentage of the pool, averaged across the two sequencing samples",0.016%
same,"Percentage of the pool, Seq I",0.017%
same,"Percentage of the pool, Seq II",0.016%
TFAHRVGSCQST,Percentage Seq I,0.019%
same,Percentage Seq II,0.026%
same,Percentage Average,0.022%
same,Counts Seq I,85
same,Counts Seq II,11
TFRKRLTATCGT,Percentage Seq I,0.016%
same,Percentage Seq II,0.028%
same,Percentage Average,0.022%
same,Counts Seq I,68
same,Counts Seq II,12
TFRSRTSCGAV,"Counts (raw counts for peptide sequence), Seq I",51
same,"Counts (raw counts for peptide sequence), Seq II",7
same,"Percentage of the pool, averaged across the two sequencing samples",0.014%
same,"Percentage of the pool, Seq I",0.012%
same,"Percentage of the pool, Seq II",0.016%
TILGNKHYVRG,Percentage Seq I,0.140%
same,Percentage Seq II,0.160%
same,Percentage Average,0.150%
same,Counts Seq I,614
same,Counts Seq II,69
TISGGRDYTRG,Percentage Seq I,0.948%
same,Percentage Seq II,0.935%
same,Percentage Average,0.941%
same,Counts Seq I,4146
same,Counts Seq II,403
TLSTNRDLIRLLAAAAAAARTGGG,"Counts (raw counts for peptide sequence), Seq I",57
same,"Counts (raw counts for peptide sequence), Seq II",9
same,"Percentage of the pool, averaged across the two sequencing samples",0.017%
same,"Percentage of the pool, Seq I",0.013%
same,"Percentage of the pool, Seq II",0.021%
TLSTNRDLIRLPAAAAAAARTGGG,"Counts (raw counts for peptide sequence), Seq I",63
same,"Counts (raw counts for peptide sequence), Seq II",7
same,"Percentage of the pool, averaged across the two sequencing samples",0.015%
same,"Percentage of the pool, Seq I",0.014%
same,"Percentage of the pool, Seq II",0.016%
TSYGSRVFAYF,Percentage Seq I,0.031%
same,Percentage Seq II,0.030%
same,Percentage Average,0.031%
same,Counts Seq I,135
same,Counts Seq II,13
TYGSRFCPQYCAAAAAAARTGGG,Percentage Seq I,0.030%
same,Percentage Seq II,0.037%
same,Percentage Average,0.034%
same,Counts Seq I,133
same,Counts Seq II,16
VAHGSKKSQFW,Percentage Seq I,0.088%
same,Percentage Seq II,0.104%
same,Percentage Average,0.096%
same,Counts Seq I,386
same,Counts Seq II,45
VAHGSKNSQFW,Percentage Seq I,0.349%
same,Percentage Seq II,0.325%
same,Percentage Average,0.337%
same,Counts Seq I,1526
same,Counts Seq II,140
VARGDWNHQFY,"Counts (raw counts for peptide sequence), Seq I",40
same,"Counts (raw counts for peptide sequence), Seq II",7
same,"Percentage of the pool, averaged across the two sequencing samples",0.013%
same,"Percentage of the pool, Seq I",0.009%
same,"Percentage of the pool, Seq II",0.016%
VARGNSNTVWG,Percentage Seq I,0.019%
same,Percentage Seq II,0.021%
same,Percentage Average,0.020%
same,Counts Seq I,85
same,Counts Seq II,9
VARGSKDWRWS,"Counts (raw counts for peptide sequence), Seq I",41
same,"Counts (raw counts for peptide sequence), Seq II",6
same,"Percentage of the pool, averaged across the two sequencing samples",0.012%
same,"Percentage of the pool, Seq I",0.009%
same,"Percentage of the pool, Seq II",0.014%
VASGGRYWSRA,Percentage Seq I,0.103%
same,Percentage Seq II,0.139%
same,Percentage Average,0.121%
same,Counts Seq I,449
same,Counts Seq II,60
VIWGSRLATGG,Percentage Seq I,0.025%
same,Percentage Seq II,0.026%
same,Percentage Average,0.025%
same,Counts Seq I,109
same,Counts Seq II,11
